Earlier results on one substance are cited in article PMC4526918.

As usually defined, the Kd is a measure of binding affinity in units of concentration.

The target of the data set is HAESA-LIKE2 (HSL2) (Arabidopsis thaliana) (UniProt C0LGX3).
Chain of UniProt C0LGX3 (C0LGX3 29-632): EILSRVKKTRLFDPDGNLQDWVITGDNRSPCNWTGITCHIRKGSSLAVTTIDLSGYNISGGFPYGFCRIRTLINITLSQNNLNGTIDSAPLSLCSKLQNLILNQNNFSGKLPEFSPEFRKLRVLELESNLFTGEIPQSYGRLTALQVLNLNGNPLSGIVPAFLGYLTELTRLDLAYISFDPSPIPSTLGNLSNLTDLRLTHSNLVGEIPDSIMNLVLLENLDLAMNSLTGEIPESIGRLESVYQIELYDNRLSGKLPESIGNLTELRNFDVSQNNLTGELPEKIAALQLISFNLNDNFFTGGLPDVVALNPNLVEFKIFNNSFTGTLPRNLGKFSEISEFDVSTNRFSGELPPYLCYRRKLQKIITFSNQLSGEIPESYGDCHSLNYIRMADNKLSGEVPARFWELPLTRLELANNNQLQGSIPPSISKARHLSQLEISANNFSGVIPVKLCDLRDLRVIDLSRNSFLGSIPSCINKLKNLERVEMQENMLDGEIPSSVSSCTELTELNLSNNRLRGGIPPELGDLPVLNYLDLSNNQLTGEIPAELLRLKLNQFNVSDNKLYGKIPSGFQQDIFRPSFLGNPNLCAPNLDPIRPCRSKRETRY

In the case of “IDA peptide (IDAp) (from UniProt Q8LAD7)”, the Kd was 20 nM.
